Experimental data from PMC3974700, “SDA, a DNA Aptamer Inhibiting E- and P-Selectin Mediated Adhesion of Cancer and Leukemia Cells, the First and Pivotal Step in Transendothelial Migration during Metastasis Formation”.

B1: control DNA (ssDNA)
DNA: GCCTGTTGTGAGCCTCCTAACGAGGAGTGGGCTAAAGGTATGTTGTGGGTTTGGTTCCATGCTTATTCTTGTCTCCC
B2: SDA (ssDNA)
DNA: GCCTGTTGTGAGCCTCCTAACGATTTGGATTTGGGGTGGAGGGTATGGTTTGTGCTGGCGTTCTCATTTCCCATGCTTATTCTTGTCTCCC

Experiments:
[1] = molecular target: T1, E-selectin/IgG-Fc chimera (human, UniProt P16581 22-556); experiment: filter binding; 3 mM Mg2+; Selection buffer: 3 mM MgCl2 in PBS, pH 7.5 (with 1 mg/mL BSA as described for SELEX beads); room temperature, 30 min; DNA <1 nM, protein 0-1 uM; conditions: protein: commercial; tags: IgG-Fc fusion; chain copies: 2; label: 32P (T4 polynucleotide kinase)
T1 sequence: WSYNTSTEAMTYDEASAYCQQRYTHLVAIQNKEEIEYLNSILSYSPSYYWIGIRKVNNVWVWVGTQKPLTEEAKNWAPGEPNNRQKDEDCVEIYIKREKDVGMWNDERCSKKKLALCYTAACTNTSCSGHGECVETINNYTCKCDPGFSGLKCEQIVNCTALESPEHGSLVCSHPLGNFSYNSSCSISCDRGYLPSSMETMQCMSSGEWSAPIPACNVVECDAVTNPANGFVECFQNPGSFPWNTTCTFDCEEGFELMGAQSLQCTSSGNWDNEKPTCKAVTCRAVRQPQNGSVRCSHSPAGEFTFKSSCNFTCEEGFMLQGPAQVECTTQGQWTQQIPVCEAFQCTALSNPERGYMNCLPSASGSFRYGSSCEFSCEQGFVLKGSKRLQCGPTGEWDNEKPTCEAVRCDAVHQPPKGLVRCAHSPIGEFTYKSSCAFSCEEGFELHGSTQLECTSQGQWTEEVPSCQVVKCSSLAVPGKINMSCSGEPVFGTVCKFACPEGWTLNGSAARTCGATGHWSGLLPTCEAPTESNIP

[2] = molecular target: P-selectin/IgG-Fc chimera (human, UniProt P16109 42-771); experiment: as above; conditions: protein: commercial; tags: IgG-Fc fusion; chain copies: 2; label: 32P (T4 polynucleotide kinase)
P-selectin/IgG-Fc chimera, sequence (P16109 42-771, change not shown): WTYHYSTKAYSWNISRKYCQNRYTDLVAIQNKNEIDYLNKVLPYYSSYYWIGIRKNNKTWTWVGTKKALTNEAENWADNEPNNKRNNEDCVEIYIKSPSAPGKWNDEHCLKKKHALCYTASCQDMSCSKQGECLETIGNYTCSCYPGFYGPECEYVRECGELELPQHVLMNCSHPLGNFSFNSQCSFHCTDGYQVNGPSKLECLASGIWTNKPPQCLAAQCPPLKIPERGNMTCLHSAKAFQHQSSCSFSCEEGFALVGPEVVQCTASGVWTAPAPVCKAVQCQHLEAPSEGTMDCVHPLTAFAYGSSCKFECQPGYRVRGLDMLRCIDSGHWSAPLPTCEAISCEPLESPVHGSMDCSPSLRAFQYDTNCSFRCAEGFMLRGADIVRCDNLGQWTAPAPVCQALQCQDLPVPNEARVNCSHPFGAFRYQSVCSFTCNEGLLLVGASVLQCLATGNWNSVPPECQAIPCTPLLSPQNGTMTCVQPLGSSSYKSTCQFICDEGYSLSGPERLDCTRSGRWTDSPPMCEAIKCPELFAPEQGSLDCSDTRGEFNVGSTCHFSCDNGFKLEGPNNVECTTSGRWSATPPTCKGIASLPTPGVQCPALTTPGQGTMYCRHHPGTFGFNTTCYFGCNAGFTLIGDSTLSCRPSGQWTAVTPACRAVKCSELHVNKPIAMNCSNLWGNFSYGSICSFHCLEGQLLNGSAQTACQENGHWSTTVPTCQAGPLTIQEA

Row | Binder | binding result [1] | binding result [2] | Kd [1] | Kd [2]
1 | B1 | no binding | no binding | – | –
2 | B2 | – | – | 98 ± 16 nM | 95 ± 18 nM
